Legend:
[1] = target: T1, hCXCL11.0023-G1T4k.one//VHn-G1T4h.one.H435R
T1 chain 1: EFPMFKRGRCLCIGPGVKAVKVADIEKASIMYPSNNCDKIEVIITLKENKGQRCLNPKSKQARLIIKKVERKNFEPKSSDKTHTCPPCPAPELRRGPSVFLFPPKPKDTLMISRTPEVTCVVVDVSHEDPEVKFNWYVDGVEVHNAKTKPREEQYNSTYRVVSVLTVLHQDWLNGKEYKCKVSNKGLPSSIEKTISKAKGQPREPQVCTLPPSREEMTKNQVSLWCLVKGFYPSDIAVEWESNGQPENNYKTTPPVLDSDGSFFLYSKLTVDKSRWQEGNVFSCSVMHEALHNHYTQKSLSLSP
T1 chain 2: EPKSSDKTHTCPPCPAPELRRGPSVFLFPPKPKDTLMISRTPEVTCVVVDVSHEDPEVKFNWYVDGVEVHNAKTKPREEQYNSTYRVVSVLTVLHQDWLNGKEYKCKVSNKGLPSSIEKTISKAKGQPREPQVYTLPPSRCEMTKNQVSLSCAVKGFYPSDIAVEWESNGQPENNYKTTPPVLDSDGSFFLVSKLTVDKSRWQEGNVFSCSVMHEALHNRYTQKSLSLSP

[2] = target: T2, hCXCL11.0025-G1T4k.one//VHn-G1T4h.one.H435R
T2 chain 1: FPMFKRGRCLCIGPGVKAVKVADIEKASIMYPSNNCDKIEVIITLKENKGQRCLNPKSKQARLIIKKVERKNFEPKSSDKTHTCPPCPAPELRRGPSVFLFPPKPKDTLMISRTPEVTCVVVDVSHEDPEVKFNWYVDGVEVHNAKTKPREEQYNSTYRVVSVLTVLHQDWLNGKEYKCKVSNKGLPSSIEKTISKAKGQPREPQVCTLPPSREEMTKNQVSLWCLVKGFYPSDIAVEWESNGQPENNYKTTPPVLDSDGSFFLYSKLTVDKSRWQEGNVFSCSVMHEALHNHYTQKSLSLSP
T2 chain 2: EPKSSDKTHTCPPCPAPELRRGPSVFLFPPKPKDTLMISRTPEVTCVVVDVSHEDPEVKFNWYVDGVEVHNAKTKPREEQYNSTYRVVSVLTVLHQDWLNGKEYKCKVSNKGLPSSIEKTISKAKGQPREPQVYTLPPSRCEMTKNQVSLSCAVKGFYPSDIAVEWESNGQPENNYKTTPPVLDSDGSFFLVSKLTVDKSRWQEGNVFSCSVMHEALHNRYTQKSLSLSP

[3] = target: T3, hCXCL11.0036-G1T4k.one//VHn-G1T4h.one.H435R
T3 chain 1: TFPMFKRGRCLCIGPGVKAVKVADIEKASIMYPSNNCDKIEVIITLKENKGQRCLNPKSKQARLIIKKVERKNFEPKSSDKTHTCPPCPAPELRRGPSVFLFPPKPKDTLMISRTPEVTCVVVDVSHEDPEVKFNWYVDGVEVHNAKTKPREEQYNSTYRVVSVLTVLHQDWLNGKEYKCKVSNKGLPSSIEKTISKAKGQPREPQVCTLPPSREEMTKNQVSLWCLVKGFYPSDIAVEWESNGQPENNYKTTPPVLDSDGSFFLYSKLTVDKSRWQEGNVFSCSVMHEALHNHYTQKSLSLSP
T3 chain 2: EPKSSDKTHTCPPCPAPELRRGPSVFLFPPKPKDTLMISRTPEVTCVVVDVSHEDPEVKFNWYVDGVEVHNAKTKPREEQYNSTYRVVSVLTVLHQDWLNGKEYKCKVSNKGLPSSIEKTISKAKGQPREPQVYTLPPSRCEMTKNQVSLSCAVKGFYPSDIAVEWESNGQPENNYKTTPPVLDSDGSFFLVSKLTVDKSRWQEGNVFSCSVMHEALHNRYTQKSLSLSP

[4] = target: T4, hITIP0021-G1T4k.one//VHn-G1T4h.one.H435R
T4 chain 1: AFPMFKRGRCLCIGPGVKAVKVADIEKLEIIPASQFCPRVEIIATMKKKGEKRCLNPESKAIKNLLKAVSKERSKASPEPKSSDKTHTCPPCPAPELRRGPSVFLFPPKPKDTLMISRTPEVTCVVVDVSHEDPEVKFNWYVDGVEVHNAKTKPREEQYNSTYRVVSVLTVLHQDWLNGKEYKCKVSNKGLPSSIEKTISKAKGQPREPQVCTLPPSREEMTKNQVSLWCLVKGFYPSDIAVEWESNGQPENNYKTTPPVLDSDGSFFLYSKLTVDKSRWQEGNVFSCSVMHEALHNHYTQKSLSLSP
T4 chain 2: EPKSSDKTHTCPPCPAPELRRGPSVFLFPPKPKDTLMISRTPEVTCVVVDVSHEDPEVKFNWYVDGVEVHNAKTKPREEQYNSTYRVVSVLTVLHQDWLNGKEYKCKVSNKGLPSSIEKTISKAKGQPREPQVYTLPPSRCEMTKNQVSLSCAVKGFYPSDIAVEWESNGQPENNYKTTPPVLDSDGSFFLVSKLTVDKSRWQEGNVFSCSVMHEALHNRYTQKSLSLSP

[5] = target: T5, hITIP0023-G1T4k.one//VHn-G1T4h.one.H435R
T5 chain 1: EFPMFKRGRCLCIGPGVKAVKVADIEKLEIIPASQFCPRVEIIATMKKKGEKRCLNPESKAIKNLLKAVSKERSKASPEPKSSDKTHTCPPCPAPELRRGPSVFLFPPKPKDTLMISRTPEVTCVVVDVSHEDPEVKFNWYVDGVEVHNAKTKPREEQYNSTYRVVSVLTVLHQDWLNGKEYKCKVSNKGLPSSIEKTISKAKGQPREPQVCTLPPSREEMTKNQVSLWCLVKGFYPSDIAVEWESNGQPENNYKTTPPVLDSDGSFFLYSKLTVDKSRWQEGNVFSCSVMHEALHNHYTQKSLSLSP
T5 chain 2: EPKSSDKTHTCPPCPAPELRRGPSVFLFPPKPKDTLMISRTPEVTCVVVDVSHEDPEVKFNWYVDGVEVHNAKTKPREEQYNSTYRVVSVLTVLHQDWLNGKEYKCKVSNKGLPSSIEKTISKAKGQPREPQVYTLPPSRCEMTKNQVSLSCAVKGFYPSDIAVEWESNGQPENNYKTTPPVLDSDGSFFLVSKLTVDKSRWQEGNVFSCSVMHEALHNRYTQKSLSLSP

[6] = target: T6, hITIP0030-G1T4k.one//VHn-G1T4h.one.H435R
T6 chain 1: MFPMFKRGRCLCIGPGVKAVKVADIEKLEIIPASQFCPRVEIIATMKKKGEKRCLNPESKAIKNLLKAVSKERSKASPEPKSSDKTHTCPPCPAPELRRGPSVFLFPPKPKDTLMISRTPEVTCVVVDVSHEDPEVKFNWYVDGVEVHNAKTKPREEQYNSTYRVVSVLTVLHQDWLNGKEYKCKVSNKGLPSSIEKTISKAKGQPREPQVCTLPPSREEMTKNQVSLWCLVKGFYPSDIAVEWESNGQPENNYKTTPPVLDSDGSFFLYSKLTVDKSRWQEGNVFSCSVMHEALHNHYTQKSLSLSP
T6 chain 2: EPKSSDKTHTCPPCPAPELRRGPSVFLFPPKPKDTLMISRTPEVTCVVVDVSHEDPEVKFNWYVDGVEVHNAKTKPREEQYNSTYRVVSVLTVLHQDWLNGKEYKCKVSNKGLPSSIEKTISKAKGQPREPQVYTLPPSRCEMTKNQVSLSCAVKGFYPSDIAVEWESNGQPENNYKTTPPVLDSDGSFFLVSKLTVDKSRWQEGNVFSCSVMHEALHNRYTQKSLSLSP

[7] = target: T7, hITIP0033-G1T4k.one//VHn-G1T4h.one.H435R
T7 chain 1: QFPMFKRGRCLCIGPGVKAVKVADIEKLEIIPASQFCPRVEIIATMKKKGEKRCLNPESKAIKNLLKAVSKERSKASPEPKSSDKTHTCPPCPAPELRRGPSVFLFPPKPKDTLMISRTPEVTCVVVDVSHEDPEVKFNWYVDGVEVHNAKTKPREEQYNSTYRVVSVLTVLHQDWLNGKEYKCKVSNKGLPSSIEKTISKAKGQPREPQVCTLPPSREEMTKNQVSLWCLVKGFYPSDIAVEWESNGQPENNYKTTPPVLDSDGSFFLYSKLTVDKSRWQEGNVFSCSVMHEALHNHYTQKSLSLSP
T7 chain 2: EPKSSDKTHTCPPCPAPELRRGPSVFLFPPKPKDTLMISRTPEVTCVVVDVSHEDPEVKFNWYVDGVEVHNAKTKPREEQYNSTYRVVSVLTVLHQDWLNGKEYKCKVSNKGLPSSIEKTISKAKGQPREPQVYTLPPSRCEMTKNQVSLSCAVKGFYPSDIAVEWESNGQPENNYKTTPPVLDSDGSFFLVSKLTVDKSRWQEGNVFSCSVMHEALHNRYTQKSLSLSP

[8] = target: T8, hITIP0039-G1T4k.one//VHn-G1T4h.one.H435R
T8 chain 1: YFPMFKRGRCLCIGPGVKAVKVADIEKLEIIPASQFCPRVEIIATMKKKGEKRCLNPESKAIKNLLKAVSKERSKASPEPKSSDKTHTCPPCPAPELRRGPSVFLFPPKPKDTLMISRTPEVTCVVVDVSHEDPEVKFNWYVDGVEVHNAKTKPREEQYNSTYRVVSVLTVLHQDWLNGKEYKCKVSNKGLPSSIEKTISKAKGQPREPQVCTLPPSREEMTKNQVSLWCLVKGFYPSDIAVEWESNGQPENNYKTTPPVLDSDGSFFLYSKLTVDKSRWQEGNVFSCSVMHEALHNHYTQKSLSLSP
T8 chain 2: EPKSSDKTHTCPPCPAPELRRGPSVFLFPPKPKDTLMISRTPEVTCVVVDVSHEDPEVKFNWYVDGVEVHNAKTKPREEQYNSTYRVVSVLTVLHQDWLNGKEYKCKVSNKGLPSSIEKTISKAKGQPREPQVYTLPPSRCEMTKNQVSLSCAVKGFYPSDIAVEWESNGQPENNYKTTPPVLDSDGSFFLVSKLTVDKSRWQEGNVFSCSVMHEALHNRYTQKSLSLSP

B1: human dipeptidyl peptidase IV (human DPPIV, hDPPIV) (Biolegend, 764102) (protein)
chain: NKGTDDATADSRKTYTLTDYLKNTYRLKLYSLRWISDHEYLYKQENNILVFNAEYGNSSVFLENSTFDEFGHSINDYSISPDGQFILLEYNYVKQWRHSYTASYDIYDLNKRQLITEERIPNNTQWVTWSPVGHKLAYVWNNDIYVKIEPNLPSYRITWTGKEDIIYNGITDWVYEEEVFSAYSALWWSPNGTFLAYAQFNDTEVPLIEYSFYSDESLQYPKTVRVPYPKAGAVNPTVKFFVVNTDSLSSVTNATSIQITAPASMLIGDHYLCDVTWATQERISLQWLRRIQNYSVMDICDYDESSGRWNCLVARQHIEMSTTGWVGRFRPSEPHFTLDGNSFYKIISNEEGYRHICYFQIDKKDCTFITKGTWEVIGIEALTSDYLYYISNEYKGMPGGRNLYKIQLSDYTKVTCLSCELNPERCQYYSVSFSKEAKYYQLRCSGPGLPLYTLHSSVNDKGLRVLEDNSALDKMLQNVQMPSKKLDFIILNETKFWYQMILPPHFDKSKKYPLLLDVYAGPCSQKADTVFRLNWATYLASTENIIVASFDGRGSGYQGDKIMHAINRRLGTFEVEDQIEAARQFSKMGFVDNKRIAIWGWSYGGYVTSMVLGSGSGVFKCGIAVAPVSRWEYYDSVYTERYMGLPTPEDNLDHYRNSTVMSRAENFKQVEYLLIHGTADDNVHFQQSAQISKALVDVGVDFQAMWYTDEDHGIASSTAHQHIYTHMSHFIKQCFSLP
[1]
  cleavage by hDPPIV (LC/MS mass): showed no mass change suggestive of peptide bond cleavage by hDPPIV treatment
[2]
  cleavage by hDPPIV (LC/MS mass): showed no mass change suggestive of peptide bond cleavage by hDPPIV treatment
[3]
  cleavage by hDPPIV (LC/MS mass): showed no mass change suggestive of peptide bond cleavage by hDPPIV treatment
[4]
  cleavage by hDPPIV (LC/MS mass): showed no mass change suggestive of peptide bond cleavage by hDPPIV treatment
[5]
  cleavage by hDPPIV (LC/MS mass): showed no mass change suggestive of peptide bond cleavage by hDPPIV treatment
[6]
  cleavage by hDPPIV (LC/MS mass): showed no mass change suggestive of peptide bond cleavage by hDPPIV treatment
[7]
  cleavage by hDPPIV (LC/MS mass): showed no mass change suggestive of peptide bond cleavage by hDPPIV treatment
[8]
  cleavage by hDPPIV (LC/MS mass): showed no mass change suggestive of peptide bond cleavage by hDPPIV treatment
